Test results reported in the RNAGym collection of RNA variant scans (doi:10.7554/elife.80360).

B1: CPEB3 Ribozyme (parent)
chain: GGGGGCCACAGCAGAAGCGUUCACGUCGCGGCCCCUGUCAGAUUCUGGUGAAUCUGCGAAUUCUGCUGU

Variants of: B1
Assay: self-cleavage, relative activity (ratio to wild type); higher = more cleavage; co-transcriptional
With G31U C57U the self-cleavage was 0.229.
G31U C57A gave a self-cleavage of 0.208.
For C32A U62C, the self-cleavage was 0.339.
C32A U67A gave a self-cleavage of 0.956.
In the case of C32A U67G, the self-cleavage is reported as 0.936.
C32A U67C showed a self-cleavage of 0.882.
For G31U U46G, the self-cleavage was 0.638.
For G31U U46C, the self-cleavage was 0.725.
G31U U46A showed a self-cleavage of 0.785.
G31C U64C gave a self-cleavage of 0.273.
G31C U64A showed a self-cleavage of 0.111.
With G31C G37A the self-cleavage was 0.19.
For G31C G37U, the self-cleavage was 0.203.
Variant G31C G37C has a self-cleavage of 0.217.
G31A A60G showed a self-cleavage of 0.475.
Variant G31U U44C has a self-cleavage of 0.618.
For G31C U53A, the self-cleavage was 0.208.
Variant C32G C34U has a self-cleavage of 0.363.
With C32A C63G the self-cleavage was 0.344.
C32A C63U gave a self-cleavage of 0.772.
For G31A C54A, the self-cleavage was 0.489.
G31A C54G showed a self-cleavage of 0.436.
Work on G31A C54U yielded a self-cleavage of 0.793.
For G31A C34A, the self-cleavage was 0.239.
In the case of G31U C34A, the self-cleavage is reported as 0.232.
For G31U C34G, the self-cleavage was 0.237.
With G31A A51G the self-cleavage was 0.928.
With G31A A51C the self-cleavage was 0.897.
In the case of G31A A51U, the self-cleavage is reported as 0.879.
G31C A59U gave a self-cleavage of 0.24.
G31C A59C gave a self-cleavage of 0.178.
G31C G65U showed a self-cleavage of 0.136.
In the case of G31C G65A, the self-cleavage is reported as 0.147.
In the case of G31C C34G, the self-cleavage is reported as 0.382.
G31C C34U showed a self-cleavage of 0.281.
Work on C32G C33U yielded a self-cleavage of 0.287.
With C32G C33G the self-cleavage was 0.179.
For C32G C33A, the self-cleavage was 0.309.
In the case of G31C A40G, the self-cleavage is reported as 0.229.
C32G C35G gave a self-cleavage of 0.303.
C32G C35A showed a self-cleavage of 0.143.
G31C U38C gave a self-cleavage of 0.191.
G31C U38G gave a self-cleavage of 0.191.
In the case of G31A U38C, the self-cleavage is reported as 0.762.
For C32A A40C, the self-cleavage was 0.321.
C32A A40U showed a self-cleavage of 0.376.
C32A A40G gave a self-cleavage of 0.711.
C32A A52U gave a self-cleavage of 0.645.
C32A A52C showed a self-cleavage of 0.374.
Variant C32G A60G has a self-cleavage of 0.267.
Variant G31A U46A has a self-cleavage of 0.866.
With G31A A59U the self-cleavage was 0.441.
Variant G31A A59C has a self-cleavage of 0.394.
In the case of G31U C32U, the self-cleavage is reported as 0.32.
G31U C32G gave a self-cleavage of 0.177.
G31A A42U gave a self-cleavage of 0.638.
G31U G37C gave a self-cleavage of 0.189.
For G31U G37U, the self-cleavage was 0.163.
G31A G48U gave a self-cleavage of 0.931.
Work on G31C G56C yielded a self-cleavage of 0.139.
Variant G31C G56A has a self-cleavage of 0.2.
For G31C G56U, the self-cleavage was 0.164.
Work on G31U yielded a self-cleavage of 0.782.
Work on G31C yielded a self-cleavage of 0.255.
G31U U43A showed a self-cleavage of 0.443.
In the case of G31U U43G, the self-cleavage is reported as 0.454.
G31U U43C showed a self-cleavage of 0.393.
In the case of C32A U64G, the self-cleavage is reported as 0.726.
For C32A U64C, the self-cleavage was 0.499.
C32A U64A showed a self-cleavage of 0.519.
C32G C57G gave a self-cleavage of 0.263.
For C32A C45G, the self-cleavage was 0.667.
In the case of G31U C39A, the self-cleavage is reported as 0.319.
In the case of G31U C39U, the self-cleavage is reported as 0.357.
Variant G31U C39G has a self-cleavage of 0.437.
Variant C32G A59G has a self-cleavage of 0.586.
C32G A59U showed a self-cleavage of 0.206.
In the case of G31C U61G, the self-cleavage is reported as 0.158.
In the case of G31C U61C, the self-cleavage is reported as 0.188.
Variant G31C U61A has a self-cleavage of 0.179.
G31C C39A gave a self-cleavage of 0.186.
For G31C C39G, the self-cleavage was 0.235.
With G31C C39U the self-cleavage was 0.197.
